Test [1] has as its target Aβ in the dimer and trimer bands of the culture media of C99 transfected CHO cells (isoform not determined) (human). Briefly: SDS-PAGE and western blot of oligomer bands; CHO cell lysates (4% SDS lysis buffer, heated 10 min at 70 °C with 50 mM DTT) and lyophilised culture media 48 h after transfection; 4-12% NuPAGE bis-tris gels; detected with anti-Aβ W0-2.
Test [2] has as its target C99-derived hexameric Aβ42 (cell-derived amyloid-β 42 from CHO cells transfected with C99) (human) (UniProt P05067). As to the kind of experiment: GELFrEE fractionation by size and western blot; Aβ immunoprecipitated with W0-2 from media, boiled at 95 °C with DTT, separated on the GELFrEE 8100 system; fractions blotted with W0-2; hexamer in fraction 5.
Test [3] has the same target. As to the kind of experiment: SDS-PAGE and western blot of oligomer bands; CHO cell lysates (4% SDS lysis buffer, heated 10 min at 70 °C with 50 mM DTT) and lyophilised culture media 48 h after transfection; 4-12% NuPAGE bis-tris gels; detected with anti-Aβ W0-2. (In western blotting, separated proteins are transferred to a membrane and probed.)
Test [4] addresses Hexameric Aβ from CHO cells transfected with C99 carrying the Arctic (E22G) FAD mutation (human). Described as above.
Test [5] addresses Hexameric Aβ from CHO cells transfected with C99 carrying the Dutch (E22Q) FAD mutation (human). The description is as above.
The target in test [6] is Hexameric Aβ from CHO cells transfected with C99 carrying the Flemish (A21G) FAD mutation (human). The description is as above.
Test [7] concerns the target Hexameric Aβ from CHO cells transfected with C99 carrying the Iowa (D23N) FAD mutation (human). The test is described as above.
Test [8] has as its target Hexameric Aβ from CHO cells transfected with C99 carrying the Italian (E22K) FAD mutation (human). Described as above.
Test [9] addresses vC42, assembly-impaired variant of Aβ42 (F19S, G37D) from transfected CHO cells (human). The test is described as above.

Values joined by “and” are separate entries in the source; they are usually repeats but may differ in a detail not shown here. Equal entries are not always repeated.

On to “Aβ in the dimer and trimer bands of the culture media of C99 transfected CHO cells (isoform not determined) (peptide)”, for which, in test [1], the stoichiometry N – broadly, a count of units in the complex or per binding partner – was 2 and 3.

For “C99-derived hexameric Aβ42 (cell-derived amyloid-β 42 from CHO cells transfected with C99) (from UniProt P05067 672-770) (peptide)”, the stoichiometry N in [2] and in test [3] was 6 each time.

Regarding “Hexameric Aβ from CHO cells transfected with C99 carrying the Arctic (E22G) FAD mutation (peptide)”, in [4], the stoichiometry N stood at 6.

In test [5], “Hexameric Aβ from CHO cells transfected with C99 carrying the Dutch (E22Q) FAD mutation (peptide)” showed a stoichiometry N of 6.

As to “Hexameric Aβ from CHO cells transfected with C99 carrying the Flemish (A21G) FAD mutation (peptide)”, the stoichiometry N in test [6] turned out to be 6.

With “Hexameric Aβ from CHO cells transfected with C99 carrying the Iowa (D23N) FAD mutation (peptide)”, the stoichiometry N in [7] worked out at 6.

Regarding “Hexameric Aβ from CHO cells transfected with C99 carrying the Italian (E22K) FAD mutation (peptide)”, the stoichiometry N in test [8] was 6.

In the case of “vC42, assembly-impaired variant of Aβ42 (F19S, G37D) from transfected CHO cells (peptide)”, in test [9], the stoichiometry N was 2 and 3.

(Values after paper PMC8172837.)
